Results: patent US10495630B2, “Methods for the determination of compounds or compositions for the treatment of lipofuscin related diseases and compounds or compositions” (KATAIRO GMBH, priority 2014, dated 2019)

Test system: Abca4 (−/−) mice
Assay: A2E concentration in eyes of Abca4 (−/−) mice after intravitreal injection, HPLCMSMS
Assay type: in vivo
Conditions: redox active and chelating protein; intravitreal 2 μl of 20 mg/ml; one week after injection
Source text: […] […] The left eye was not treated and maintained as a control. Untreated eyes of age-matched mice lacking the Abca4 transporter were an additional control.
The concentration in each treated eye was then expressed as a percentage of the average concentration in all untreated eyes in the mice of the same age.
The left eye was not treated and maintained as a control. Untreated eyes of age-matched mice lacking the Abca4 transporter were an additional control.
The left eye was not treated and maintained as a control. Untreated eyes of age-matched mice lacking the Abca4 transporter were an additional control. […] Tryptophan is capable of absorbing and re-radiating light energy, as is riboflavin.
Water solutions were diluted 1:3 with acetonitrile and then sealed in vials for injection. 6 μL of the water acetonitrile solutions were injected onto a 2×50 mm Phenyl derived HPLC column (3 μm) and eluted with a gradient from 20% acetonitrile to 100% acetonitrile over 4 minutes at a flow rate of 500 μL/minute.

B1: Lactoferrin: protein capable of binding iron with high affinity (protein, UniProt P02788 20-710, looked up)
Lactotransferrin: GRRRSVQWCAVSQPEATKCFQWQRNMRKVRGPPVSCIKRDSPIQCIQAIAENRADAVTLDGGFIYEAGLAPYKLRPVAAEVYGTERQPRTHYYAVAVVKKGGSFQLNELQGLKSCHTGLRRTAGWNVPIGTLRPFLNWTGPPEPIEAAVARFFSASCVPGADKGQFPNLCRLCAGTGENKCAFSSQEPYFSYSGAFKCLRDGAGDVAFIRESTVFEDLSDEAERDEYELLCPDNTRKPVDKFKDCHLARVPSHAVVARSVNGKEDAIWNLLRQAQEKFGKDKSPKFQLFGSPSGQKDLLFKDSAIGFSRVPPRIDSGLYLGSGYFTAIQNLRKSEEEVAARRARVVWCAVGEQELRKCNQWSGLSEGSVTCSSASTTEDCIALVLKGEADAMSLDGGYVYTAGKCGLVPVLAENYKSQQSSDPDPNCVDRPVEGYLAVAVVRRSDTSLTWNSVKGKKSCHTAVDRTAGWNIPMGLLFNQTGSCKFDEYFSQSCAPGSDPRSNLCALCIGDEQGENKCVPNSNERYYGYTGAFRCLAENAGDVAFVKDVTVLQNTDGNNNEAWAKDLKLADFALLCLDGKRKPVTEARSCHLAMAPNHAVVSRMDKVERLKQVLLHQQAKFGRNGSDCPDKFCLFQSETKNLLFNDNTECLARLHGKTTYEKYLGPQYVAGITNLKKCSTSPLLEACEFLRK
% of A2E relative to age matched untreated: 63% | Concentration A2E (μM) in the treated eye: 20 µM
